Measured values as given in PMC4026322.

Assay: immunofluorescence in HEK293 cells (data not shown)
Settings: glycan lost; control: wild type

B1: ABCC6: N15D (protein)
parent chain: MAAPAEPCAGQGVWNQTEPEPAATSLLSLCFLRTAGVWVPPMYLWVLGPIYLLFIHHHGRGYLRMSPLFKAKMVLGFALIVLCTSSVAVALWKIQQGTPEAPEFLIHPTVWLTTMSFAVFLIHTERKKGVQSSGVLFGYWLLCFVLPATNAAQQASGAGFQSDPVRHLSTYLCLSLVVAQFVLSCLADQPPFFPEDPQQSNPCPETGAAFPSKATFWWVSGLVWRGYRRPLRPKDLWSLGRENSSEELVSRLEKEWMRNRSAARRHNKAIAFKRKGGSGMKAPETEPFLRQEGSQWRPLLKAIWQVFHSTFLLGTLSLIISDVFRFTVPKLLSLFLEFIGDPKPPAWKGYLLAVLMFLSACLQTLFEQQNMYRLKVLQMRLRSAITGLVYRKVLALSSGSRKASAVGDVVNLVSVDVQRLTESVLYLNGLWLPLVWIVVCFVYLWQLLGPSALTAIAVFLSLLPLNFFISKKRNHHQEEQMRQKDSRARLTSSILRNSKTIKFHGWEGAFLDRVLGIRGQELGALRTSGLLFSVSLVSFQVSTFLVALVVFAVHTLVAENAMNAEKAFVTLTVLNILNKAQAFLPFSIHSLVQARVSFDRLVTFLCLEEVDPGVVDSSSSGSAAGKDCITIHSATFAWSQESPPCLHRINLTVPQGCLLAVVGPVGAGKSSLLSALLGELSKVEGFVSIEGAVAYVPQEAWVQNTSVVENVCFGQELDPPWLERVLEACALQPDVDSFPEGIHTSIGEQGMNLSGGQKQRLSLARAVYRKAAVYLLDDPLAALDAHVGQHVFNQVIGPGGLLQGTTRILVTHALHILPQADWIIVLANGAIAEMGSYQELLQRKGALMCLLDQARQPGDRGEGETEPGTSTKDPRGTSAGRRPELRRERSIKSVPEKDRTTSEAQTEVPLDDPDRAGWPAGKDSIQYGRVKATVHLAYLRAVGTPLCLYALFLFLCQQVASFCRGYWLSLWADDPAVGGQQTQAALRGGIFGLLGCLQAIGLFASMAAVLLGGARASRLLFQRLLWDVVRSPISFFERTPIGHLLNRFSKETDTVDVDIPDKLRSLLMYAFGLLEVSLVVAVATPLATVAILPLFLLYAGFQSLYVVSSCQLRRLESASYSSVCSHMAETFQGSTVVRAFRTQAPFVAQNNARVDESQRISFPRLVADRWLAANVELLGNGLVFAAATCAVLSKAHLSAGLVGFSVSAALQVTQTLQWVVRNWTDLENSIVSVERMQDYAWTPKEAPWRLPTCAAQPPWPQGGQIEFRDFGLRYRPELPLAVQGVSFKIHAGEKVGIVGRTGAGKSSLASGLLRLQEAAEGGIWIDGVPIAHVGLHTLRSRISIIPQDPILFPGSLRMNLDLLQEHSDEAIWAALETVQLKALVASLPGQLQYKCADRGEDLSVGQKQLLCLARALLRKTQILILDEATAAVDPGTELQMQAMLGSWFAQCTVLLIAHRLRSVMDCARVLVMDKGQVAESGSPAQLLAQKGLFYRLAQESGLV
- localisation_or_trafficking: no change
